How the values were obtained:
[1] = biological target: FLAG-tagged IDO1 K101D expressed in HEK293T cells (human, UniProt P14902 1-403, K101D); assay: cell-based or functional assay
[2] = biological target: FLAG-tagged IDO1 K101A expressed in HEK293T cells (human, UniProt P14902 1-403, K101A); assay: cell-based or functional assay
[3] = biological target: T1, N-terminally His6-tagged human IDO1 (indoleamine 2,3-dioxygenase 1), purified apo-IDO1 (human, UniProt P14902 1-403, Alexa Fluor 488 on Cys groups (in the fluorescence polarisation assay only)); assay: cross-linking; proteins bound to each other at RT for 30 min, then 100-fold excess of DSSO for 15 min at RT; 50 mM HEPES pH 7.4, 100 mM NaCl; trypsin digest and MS-cleavable XL-MS; settings: both partners purified
T1 construct: human indoleamine 2,3-dioxygenase 1, cloned in the pHis-parallel1 vector; About 0.1 mol residual heme per mol protein; no effort was made to remove it; also called His6-IDO1; wild-type purified IDO1; source: E. coli BL21 (DE3), purified (Ni-NTA)
T1 sequence (P14902 whole entry): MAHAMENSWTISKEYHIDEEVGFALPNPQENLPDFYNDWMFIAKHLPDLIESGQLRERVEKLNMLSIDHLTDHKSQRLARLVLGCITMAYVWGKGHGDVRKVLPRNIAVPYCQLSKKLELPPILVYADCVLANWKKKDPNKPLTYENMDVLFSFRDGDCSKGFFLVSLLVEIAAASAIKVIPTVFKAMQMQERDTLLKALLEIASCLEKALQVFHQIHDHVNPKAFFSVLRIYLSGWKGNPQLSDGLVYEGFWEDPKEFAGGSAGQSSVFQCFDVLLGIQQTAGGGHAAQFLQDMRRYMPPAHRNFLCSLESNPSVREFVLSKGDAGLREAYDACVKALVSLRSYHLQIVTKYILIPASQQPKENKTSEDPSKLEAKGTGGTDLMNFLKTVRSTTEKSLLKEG

FLAG-tagged IDO1 K101A expressed in HEK293T cells, sequence (P14902 whole entry K101A): as the sequence (P14902 whole entry) above, with K101A counted along it
FLAG-tagged IDO1 K101D expressed in HEK293T cells, sequence (P14902 whole entry K101D): as the sequence (P14902 whole entry) above, with K101D counted along it

B1: GAPDH of HEK293T cells (native) (enzyme)
chain: not shown
In the case of B1, the “14C heme counts in the IDO1 immunoprecipitates, relative to wild-type IDO1” value [1] is reported as 68 % decrease, the “IDO1 catalytic activity of cell supernatants, relative to wild type” value [1] is reported as 65 % reduced and the “L-Kyn buildup in the culture medium over a 5 h period, relative to wild-type IDO1” value [1] is reported as ~60 % less. For the same binder, the “14C heme counts in the IDO1 immunoprecipitates, relative to wild-type IDO1” value [2] was 68 % decrease, the “IDO1 catalytic activity of cell supernatants, relative to wild type” value [2] was 65 % reduced and the “L-Kyn buildup in the culture medium over a 5 h period, relative to wild-type IDO1” value [2] was ~60 % less.

B2: rabbit GAPDH protein (Sigma #G2267) (enzyme)
chain: not shown
notes: rabbit glyceraldehyde 3-phosphate dehydrogenase; MS data were searched against P46406; The printed cross-linked residues K334 and K215 fit human GAPDH P04406; also called glyceraldehyde 3-phosphate dehydrogenase; source: bought: Sigma #G2267
B2: binds [3].
